Data on one substance can be found in US20240117061A1.

Read-outs that look alike come from different tables or passages of the source.

In experiment [1] the target is recombinant human BCMA-his fusion protein (ACRO Biosystem, Cat. No. BCA-H522y) (human) (UniProt Q02223). The experiment is described as follows: competitive ELISA, coated huBCMA-his, competitor 83A10-biotin.
Experiment [2] addresses human BCMA on cells (NCI-H929, U266B1, HEK293 huBCMA) (human) (UniProt Q02223). The experiment in a line: flow cytometry on NCI-H929 cells. A general note: In flow cytometry, cells or beads pass a laser one at a time.
The target in experiment [3] is recombinant human BCMA-his fusion protein (ACRO Biosystem, Cat. No. BCA-H522y) (human) (UniProt Q02223). The experiment in a line: ELISA, coated antigen. A general note: An ELISA detects its analyte on a solid surface through an enzyme-linked reagent.
For experiment [4] the target is unchanged. The experiment is described as follows: competitive ELISA, coated huBCMA-his, competitor 83A10-biotin. This is another data set of the same source.

Chain of positive control antibody 83A10 (VH): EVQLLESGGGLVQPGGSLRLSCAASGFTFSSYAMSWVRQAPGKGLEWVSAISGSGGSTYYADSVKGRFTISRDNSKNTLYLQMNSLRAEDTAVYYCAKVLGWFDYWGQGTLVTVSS
Chain of positive control antibody 83A10 (VL): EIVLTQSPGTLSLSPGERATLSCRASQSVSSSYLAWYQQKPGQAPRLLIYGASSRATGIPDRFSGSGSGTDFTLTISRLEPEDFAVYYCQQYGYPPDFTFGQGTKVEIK
Chain of recombinant human BCMA-his fusion protein (ACRO Biosystem, Cat. No. BCA-H522y) (human) (Q02223 1-54): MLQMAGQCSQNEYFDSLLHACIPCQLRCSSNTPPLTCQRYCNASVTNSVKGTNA
Chain of human BCMA on cells (NCI-H929, U266B1, HEK293 huBCMA) (human) (Q02223 whole entry, the tested form may be a part): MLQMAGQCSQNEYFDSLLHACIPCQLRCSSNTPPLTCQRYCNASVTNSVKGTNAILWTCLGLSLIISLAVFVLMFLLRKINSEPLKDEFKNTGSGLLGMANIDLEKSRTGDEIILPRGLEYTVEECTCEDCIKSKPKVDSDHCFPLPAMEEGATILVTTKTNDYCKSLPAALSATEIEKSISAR

On to positive control antibody 83A10, for which the IC50 in experiment [1] was found to be 15 µg/mL; in experiment [4] it was 9.8 µg/mL. Also, the EC50 in experiment [2] amounted to 8.69 nM; in experiment [3], 0.0253 nM.

One may read the IC50 as the concentration needed to halve the response being measured. As a reminder, the EC50 is the midpoint of the concentration-response curve.
